Measured values as given in patent US20150259419A1 (PROTHENA BIOSCIENCES, published 2015).
Residue numbers refer to the chain shown, from its start.

T1: human MCAM domain 1 (MCAMhFc domain construct) (human, UniProt P43121 19-129)
T1 construct: also called amino acids 19-129; not shown: human Fc portion (captured on anti-human IgG Fc biosensors)
T1 sequence: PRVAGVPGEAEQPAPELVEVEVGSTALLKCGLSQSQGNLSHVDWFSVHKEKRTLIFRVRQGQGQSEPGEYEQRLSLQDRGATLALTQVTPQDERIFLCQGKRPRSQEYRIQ

T2: human MCAM, full length, expressed on transfected cells (human, UniProt P43121 24-646)
T2 construct: CHO cells transfected with the full length human MCAM gene; also called hMCAM; CD146
T2 chain: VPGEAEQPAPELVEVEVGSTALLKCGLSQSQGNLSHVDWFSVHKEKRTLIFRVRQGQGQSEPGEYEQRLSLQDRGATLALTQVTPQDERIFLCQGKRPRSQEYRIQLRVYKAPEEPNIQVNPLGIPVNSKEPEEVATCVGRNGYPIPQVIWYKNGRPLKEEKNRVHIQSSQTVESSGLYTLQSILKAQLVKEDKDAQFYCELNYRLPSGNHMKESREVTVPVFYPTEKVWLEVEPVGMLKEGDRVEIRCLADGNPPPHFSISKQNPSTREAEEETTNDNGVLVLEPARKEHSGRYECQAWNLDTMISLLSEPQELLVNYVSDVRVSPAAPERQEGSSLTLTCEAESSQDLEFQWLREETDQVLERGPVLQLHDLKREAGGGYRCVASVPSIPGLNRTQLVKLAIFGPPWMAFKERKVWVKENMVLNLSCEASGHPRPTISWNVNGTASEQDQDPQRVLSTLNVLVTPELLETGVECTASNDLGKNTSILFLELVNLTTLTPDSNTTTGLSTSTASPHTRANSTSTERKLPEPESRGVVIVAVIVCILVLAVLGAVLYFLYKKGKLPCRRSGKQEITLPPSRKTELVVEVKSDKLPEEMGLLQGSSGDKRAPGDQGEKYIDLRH

T3: recombinant hMCAM-His (human, UniProt P43121 24-559)
T3 construct: not shown: His tag
T3 chain: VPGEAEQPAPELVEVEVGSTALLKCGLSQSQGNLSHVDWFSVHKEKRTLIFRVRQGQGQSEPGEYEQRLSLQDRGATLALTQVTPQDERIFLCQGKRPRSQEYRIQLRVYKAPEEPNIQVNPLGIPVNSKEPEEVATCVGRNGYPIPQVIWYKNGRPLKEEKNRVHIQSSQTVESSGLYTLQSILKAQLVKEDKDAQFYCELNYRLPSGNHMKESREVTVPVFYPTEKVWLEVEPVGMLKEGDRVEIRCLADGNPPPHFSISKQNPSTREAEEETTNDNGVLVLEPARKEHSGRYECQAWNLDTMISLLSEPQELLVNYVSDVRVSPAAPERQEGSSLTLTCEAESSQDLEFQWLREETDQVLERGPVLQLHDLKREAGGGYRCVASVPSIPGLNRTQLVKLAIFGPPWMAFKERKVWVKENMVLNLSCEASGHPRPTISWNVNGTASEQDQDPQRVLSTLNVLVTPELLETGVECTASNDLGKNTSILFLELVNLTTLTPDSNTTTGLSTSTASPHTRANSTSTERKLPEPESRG

B1: rat anti-human MCAM monoclonal antibody clone 2107.4.10 (antibody, V domains shown)
VH: QVQLKESGPGLVQSSQTLSLTCTVSGFSLTSNGVSWVRQPPGKGLEWIAAISSGGSTYYNSAFKSRLSISRNTSKSQVLLKMNSLQTEDTGMYFCARHRPFYFDYWGQGVMVTVSS
VL: DIQVTQSPSLLSASVGDRVTLNCKGSQNIYKSLAWFRLKRGEAPKLLIYDANSLQTGIPSRFSGSGSGTDFTLTITSLQPEDVATYFCQQYYSGYTFGAGTKLELK
B2: rat anti-human MCAM monoclonal antibody clone 2120.4.19 (antibody, V domains shown)
VH: QVQLKESGPGLVQPSQTLSLTCTVSGFSLTSNGVSWVRQPPGKGLEWIAAISSGGTTYYNSAFKSRLSISRNTSKSQVLLKMNSLQTEDTAMYFCARRYGYGWYFDFWGPGTMVTVSS
VL: DIRMTQSPSLLSASVGDRVTLNCKASQNIYNSLAWYQQKLGEGPKVLIPNANSLQTGIPSRFSGSGSGTDFTLTISSLQPEDFATYFCQQFYSGYTFGAGTKLELK
notes: also called m2120
B3: h2120_VH1 + h2120_VL3 (antibody, V domains shown)
VH: QVTLKESGPVLVKPTETLTLTCTVSGFSLTSNGVSWVRQPPGKALEWIAAISSGGTTYYNSAFKSRLTISRDTSKSQVVLTMTNMDPVDTATYYCARRYGYGWYFDFWGQGTLVTVSS
VL: B2 VL with R3Q, L10S, L21I, L40P, E42K, G43A, P49F, F87Y, A99Q, L105I
notes: Humanized V regions cloned into expression vectors containing human CK (VL) or human IgG1 (VH); expressed in 293F cells; also called Standard VH + conservative VL; VH1VL3
B4: h2120_VH1 + h2120_VL1 (antibody, human IgG1, V domains shown)
VH: B3 VH
VL: DIQMTQSPSSLSASVGDRVTITCKASQNIYNSLAWYQQKPGKAPKVLIFNANSLQTGIPSRFSGSGSGTDFTLTISSLQPEDFATYYCQQFYSGYTFGQGTKLEIK
notes: also called Standard VH + standard VL
B5: h2120_VH1 + h2120_VL2 (antibody, human IgG1, V domains shown)
VH: B3 VH
VL: B4 VL with I58V
notes: also called Standard VH + aggressive VL
B6: h2120_VH4 + h2120_VL3 (antibody, human IgG1, V domains shown)
VH: B3 VH with N32Q
VL: B4 VL with T22N
notes: also called N-Q deamidate VH + conservative VL
B7: h2120_VH2 + h2120_VL3 (antibody, human IgG1, V domains shown)
VH: B3 VH with T68S
VL: B4 VL with T22N
notes: also called Conservative VH + conservative VL
B8: h2120_VH3 + h2120_VL3 (antibody, human IgG1, V domains shown)
VH: B3 VH with N32S
VL: B4 VL with T22N
notes: also called N-S deamidate VH + conservative VL
B9: h2120_VH5 + h2120_VL3 (antibody, V domains shown)
VH: B3 VH with G33A
VL: B4 VL with T22N
notes: also called h2120VH5VL3; VH5VL3

The binders below were run against T1, human MCAM domain 1 (MCAMhFc domain …) (assay: ForteBio Octet Red, MCAMhFc domains on anti-human IgG Fc biosensors).
Source text: The following protocol was used: ForteBio anti-human IgG Fc biosensors were used to immobilize various MCAMhFc domains including full length MCAMhFc protein on to biosensor surface. […] After loading these samples into a black 96 well plate, the Octet Red was programmed as follows: 60 seconds for baseline #1; 180 seconds for loading various domains; 60 seconds for baseline #2; 180 seconds for association of antibody to domain; and 240 seconds for dissociation of antibody from domain.
1. MCAMhFc final concentration@5 ug/ml [0374] […] 3. ForteBio anti-human IgG Fc Capture (AHC) biosensors for kinetics experiments, cat #18-5060 [0376] 4. Block 96 well plate from Greiner Bio-one, cat #655209 [0377] 5. ForteBio Octet Red machine [0378] 6. Fresh tissue culture medium, DMEM with 20% FCS, was used as buffer for dilution

| Binder | binding result |
| --- | --- |
| B1 | no binding (tested: 5 ug/ml) |
| B2 | no binding (tested: 5 ug/ml) |

Target: T2, human MCAM, full length, expressed on …
Assay: blocking of laminin 411 (20 ug/ml) binding to CHO cells expressing human MCAM, flow cytometry
Method: The 87 independent mouse fusion clones and 26 independent rat fusion clones described in Example 1 above as being capable of (i) binding to human MCAM, and (ii) blocking the interaction between human MCAM and the α-4 chain of laminin were further characterized as follows. First, IC50 quantitation for the ability of the monoclonal antibody to block the binding of human MCAM to the α-4 chain of laminin was determined as follows. CHO cells expressing human MCAM were incubated with an anti-human MCAM antibody (at various concentrations) for 30 minutes at 4 degrees Celsius. […] Unbound laminin was then washed away, and the laminin bound to the surface of the cells was detected with fluorescently labeled anti-laminin antibodies. After washing, the amount of laminin bound to the surface was detected by flow cytometry, and IC50s were calculated based on the mean fluorescent intensity.
Amino acid and nucleic acid sequences of the heavy and light chains of these antibodies, and their hypervariable regions, are provided in SEQ ID NOs:29-92. […] As such, each of these specific monoclonal antibodies was very capable of binding to human MCAM and inhibiting the interaction of cell-expressed human MCAM with its α-4 laminin binding ligand.

| Binder | IC50 |
| --- | --- |
| B1 | 0.29 µg/mL |

Target: T3, recombinant hMCAM-His
Assay: competitive ELISA on hMCAM-His against biotinylated rodent or chimeric 2120; relative to rodent 2120
Method: ELISA plates were coated with recombinant hMCAM-His, and blocked with casein buffer to prevent non-specific binding. Biotinylated rodent or chimeric antibody was added at a subsaturating concentration, in the presence or absence of 3× increasing concentrations of unlabeled competitor (humanized antibody, rodent, or chimeric). After washing to remove unbound antibody, streptavidin HRP was added to allow detection of the biotinylated antibody. The ELISA was developed with TMB substrate and the OD450 was measured. The IC50 of the unlabeled competitor was determined using the GraphPad Prism5 software.

| Binder | Fold over rodent (competitive ELISA IC50) | Fold over rodent (competitive ELISA IC50, Expt. #1) | Fold over rodent (competitive ELISA IC50, Expt. #2) |
| --- | --- | --- | --- |
| B3 | 1.8 fold | 2.23 fold | 2.42 fold |
| B4 | 3.1 fold | – | – |
| B5 | 3.1 fold | – | – |
| B6 | 5 fold | – | – |
| B7 | – | 1.93 fold | 2.62 fold |
| B8 | – | 3.47 fold | – |
| B9 | 2.4 fold | – | – |

Target: T3, recombinant hMCAM-His
Assay: ForteBio Octet Red, antibody on anti-human Fc sensors, hMCAMHis analyte, 1:1 fit; relative to rodent 2120
Method: The affinities were measured using the ForteBio Octet Red. Anti-human Fc sensors were used to capture the humanized antibodies, and several concentrations of hMCAMHis analyte were used to determine the affinity using a 1:1 fitting model.

| Binder | Fold over rodent (Forte affinity) | Fold over rodent (Forte affinity, Expt. #1) | Fold over rodent (Forte affinity, Expt. #2) | Fold over rodent (Forte affinity, second column) |
| --- | --- | --- | --- | --- |
| B3 | 5.9 fold | 5.64 fold | 6.21 fold | 5.8 fold |
| B4 | 8.8 fold | – | – | – |
| B5 | 10.8 fold | – | – | – |
| B6 | 17.4 fold | – | – | – |
| B7 | – | 6.57 fold | 6.43 fold | – |
| B8 | – | 16.1 fold | – | – |
| B9 | 1.1 fold | – | – | 1.2 fold |

Target: T2, human MCAM, full length, expressed on …
Assay: laminin/FACS assay: blocking of laminin 411 binding to hMCAM expressing CHO cells; relative to rodent 2120
Method: Following incubation for 30-45 minutes, the cells were washed and anti-laminin conjugated to AF650 (NovusBio) was added to detect the bound laminin. The cells were run on a flow cytometer to measure the laminin binding signal.

| Binder | Fold over rodent (Blocking, Expt#1) | Fold over rodent (Blocking, Expt#2) |
| --- | --- | --- |
| B3 | 1.7 fold | 2.8 fold |
| B4 | 2 fold | 3.5 fold |
| B5 | 4.6 fold | 12.6 fold |
| B6 | 3.8 fold | 5.6 fold |
| B9 | 1.2 fold | 1.5 fold |
